Results: patent publication US20220177578A1 (MAGENTA THERAPEUTICS, published 2022)

Target: T1, Human CD117 antigen (recombinant CD117 ectodomain) (human, UniProt P10721 26-520)
T1 construct: also called c-kit; ectodomain of human CD117
Assay: chemical cross-linking, High-Mass MALDI MS and nLC-Orbitrap MS of the CD117/Ab67 complex
Method: A sample of Ab67 was diluted in distilled water to a concentration of 2.7 mg/mL. 1 μL of the diluted Ab67 was then mixed with 1 μL of a matrix composed of a re-crystallized sinapinic acid matrix (10 mg/mL) in acetonitrile/water (1:1, v/v), TFA (0.1% (K200 MALDI Kit). The mixture was submitted to cross-linking using CovalX's K200 MALDI MS analysis kit. The protein solutions were mixed with 1 μl of K200 Stabilizer reagent (2 mg/ml) and incubated at room temperature. After the incubation time (180 minutes) the samples were prepared for MALDI analysis. The samples were analyzed by High-Mass MALDI MS immediately after crystallization at room temperature.
After digestion, formic acid 1% final was added to the solution. After proteolysis, 10 ul of the peptide solution generated by proteolysis were loaded onto a nano-liquid chromatography system (Ultimate 3000-RSLC). The cross-linked peptides were analyzed using Xquest version 2.0 and Stavrox 3.6. software. nLC-LTQ-Orbitrap MS/MS analysis using a nLC Ultimate 3000-RSLC system in line with a LTQ-Orbitrap mass spectrometer (Thermo Scientific) was performed.

T1 sequence (P10721 other isoform, or with tags, fused parts or gaps): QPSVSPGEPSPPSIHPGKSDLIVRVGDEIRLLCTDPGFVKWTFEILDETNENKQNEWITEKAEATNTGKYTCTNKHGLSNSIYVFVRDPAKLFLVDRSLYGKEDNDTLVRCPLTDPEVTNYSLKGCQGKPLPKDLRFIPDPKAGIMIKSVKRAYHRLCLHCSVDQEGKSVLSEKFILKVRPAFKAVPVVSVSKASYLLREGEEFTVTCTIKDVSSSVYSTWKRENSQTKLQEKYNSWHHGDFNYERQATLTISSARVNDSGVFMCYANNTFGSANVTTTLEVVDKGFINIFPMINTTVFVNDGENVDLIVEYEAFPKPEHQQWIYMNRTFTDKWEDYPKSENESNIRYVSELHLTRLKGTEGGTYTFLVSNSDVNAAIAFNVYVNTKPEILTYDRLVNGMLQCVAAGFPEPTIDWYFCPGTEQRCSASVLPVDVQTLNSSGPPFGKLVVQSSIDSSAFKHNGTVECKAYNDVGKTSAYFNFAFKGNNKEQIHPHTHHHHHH

B1: Antibody 67 (Ab67), human anti-CD117 antibody (antibody, V domains shown)
VH: EVQLVESGGGLVQPGGSLRLSCAASGFTFSDADMDWVRQAPGKGLEWVGRTRNKAGSYTTEYAASVKGRFTISRDDSKNSLYLQMNSLKTEDTAVYYCAREPKYWIDFDLWGRGTLVTVSS
VL: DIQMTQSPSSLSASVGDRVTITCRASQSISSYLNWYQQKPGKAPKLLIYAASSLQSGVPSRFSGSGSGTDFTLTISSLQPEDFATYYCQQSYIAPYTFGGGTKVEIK
notes: also called Antibody HC-67/LC-67
- binding result: binds
